We go through 1 molecule from article PMC10240976 (2022).

This assay has as its target LC3B K65W. The experiment in a line: ITC. A general note: In ITC the heat of successive injections is recorded.

The Kd is the equilibrium constant for the complex coming apart. A higher Kd goes with a looser complex. Molecule LQFEIDDEMEPLYNQAKQMRYGDY [LIR[Sp] peptide] gave a dissociation constant Kd of 22.4 µM.
